We go through 27 sequences from the supplement of paper PMC12764529.

Data set [1] can be described thus: folding stability dG unfold from chymotrypsin proteolysis; higher = more stable. The method in brief:
(§1)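 Bayesian fitting of sequencing counts gave K50 for each design. Unfolding free energy followed by setting this against a sequence-predicted unfolded-state K50 and a shared folded-state K50, either per protease or with trypsin and chymotrypsin combined. The designs, under 80 residues and lacking cysteine, were digested in a PA-tagged cDNA display format at 11 threefold-diluted protease concentrations and without protease, and only those with AlphaFold2 dimer inter-PAE above 15 were kept.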

The nature of data set [2]: folding stability dG unfold from trypsin proteolysis; higher = more stable. The method in brief:
as §1

A short description of data set [3]: folding stability dG unfold (combined trypsin and chymotrypsin); higher = more stable. In a few lines:
as §1

± gives the half width of the 95% confidence interval.

On to “SAGSNTIWYPFPLKEIKEAISSGQSMEEIADELSERHGEEVPIEYPNMKIRIYVPEPGPLYVRIEMTPDSAG [r5_343_TrROS]”, for which the “folding stability dG unfold” value was 0.907 ± 0.098 kcal/mol in data set [1], 0.519 ± 0.2 kcal/mol in data set [2] and 0.734 ± 0.14 kcal/mol in data set [3].

“SAGSPIEELAKKIAEPKYKEEKKPNLTIKVEIEVTVTTSVPVKLPNGEPAYKTTEVKIKVKLTINIPEGSAG [r5_297_JUSTAS]”: the entries for the “folding stability dG unfold” value in data set [1], in data set [2] and in data set [3] were 3.63 ± 0.48 kcal/mol, 3 ± 0.16 kcal/mol and 3.39 ± 0.46 kcal/mol, respectively.

As for “SAGSPSMVVTVRLTVTTTDPVTGTTTTTTLDIPVSPASLSTPPAQVAAALTAAAPATTIDVTVDSVLLSAGG [r19_189_JUSTAS]”, the figures for the “folding stability dG unfold” value in data set [1], in data set [2] and in data set [3] were 1.06 ± 0.06 kcal/mol, 1.794 ± 0.017 kcal/mol and 1.51 ± 0.037 kcal/mol, respectively.

Turning to “SAGSPVLATLRTYDPVAKKWTESVYPVSDPEALIAEVAAELGVEVEVDPATGVATAPLPDGRLVVVTVVSAG [r5_937_JUSTAS]”, the figures for the “folding stability dG unfold” value in data set [1], in data set [2] and in data set [3] were 1.56 ± 0.014 kcal/mol, 1.2 ± 0.036 kcal/mol and 1.45 ± 0.051 kcal/mol, respectively.

Take “SAGSPVTVPLTLTLTYTVNNPEGPEVLKTETIPLPLVFSPEELDDEETKALLQALVDALPDDVSEVVLESAG [r5_849_JUSTAS]”: the “folding stability dG unfold” value in data set [1] was 1.43 ± 0.079 kcal/mol; in data set [2], 1.32 ± 0.02 kcal/mol; in data set [3] it was 1.38 ± 0.046 kcal/mol.

Regarding “SAGSSLPPSLSKEEIVAALKSQGYTSVKEEKLPDPNKSRMVFTHPNSVVTVEFFPNSVTVTTVPLSVPSSAG [r5_899_JUSTAS]”, the “folding stability dG unfold” value in data set [1] came out at 1.32 ± 0.16 kcal/mol; in data set [2], 0.0126 ± 0.28 kcal/mol; in data set [3] it was 0.968 ± 0.23 kcal/mol.

For “SAGSSMSSTVRVEVTLTNPVTEVSPDGKTYTTPGDTVAVPVLINVSTTTYYNSSNPSDVVTETTTTVALSAG [r14_274_JUSTAS]”, the entries for the “folding stability dG unfold” value in data set [1], in data set [2] and in data set [3] were 1.22 ± 0.19 kcal/mol, 1.07 ± 0.026 kcal/mol and 1.18 ± 0.09 kcal/mol, respectively.

Consider “SAGSSPSLVLKVEIPVEIKEKRKFLLPNGETKTELTTRTITHTIVVEAGTDPAKLEEALALAEEIKEKKSAG [r14_830_JUSTAS]”, for which the entries for the “folding stability dG unfold” value in data set [1], in data set [2] and in data set [3] were 0.00535 ± 0.31 kcal/mol, -0.85 ± 0.57 kcal/mol and -0.276 ± 0.25 kcal/mol, respectively.

Turning to “SAGSSVSVSYDPNNPDKMTITITDPANGTQVSAVTAPVYKRPDGTIVVPLTITFPASGKVTTKTFTIPASAG [r5_610_JUSTAS]”, the “folding stability dG unfold” value in data set [1] amounted to 1.13 ± 0.09 kcal/mol; in data set [2], 1.22 ± 0.019 kcal/mol; in data set [3], 1.22 ± 0.059 kcal/mol.

Consider “SAGSTAELVGHPDGVELRTELRGEELVFVLPAPKDVLVVAYDPATGALVLGVPVGDRVLVLVRPPPHPSAGG [r19_384_TrMRF]”, for which the figures for the “folding stability dG unfold” value in data set [1], in data set [2] and in data set [3] were 3.88 ± 0.099 kcal/mol, 2.54 ± 0.079 kcal/mol and 3.53 ± 0.23 kcal/mol, respectively.

For “SAGSVTSVEVKEKGEVTVTTETLNIDGKPYTVVSTTTPLLDPEGNVTYTTTTTVYDPNGNKISTTPTSLSAG [r14_465_JUSTAS]”, the figures for the “folding stability dG unfold” value in data set [1], in data set [2] and in data set [3] were 2.14 ± 0.032 kcal/mol, 1.33 ± 0.033 kcal/mol and 1.84 ± 0.051 kcal/mol, respectively.

Turning to “SAGTADELVERAKEFARELAEEFGYKVDVDVKVQPTPDYYTIKVTVTFRNPGGMTWRFPFTITIPKEQFSAG [r5_609_TrROS]”, the “folding stability dG unfold” value came out at 4.91 ± 0.14 kcal/mol in data set [1], 3.45 ± 0.15 kcal/mol in data set [2] and 4.29 ± 0.16 kcal/mol in data set [3].

On to “SAGTAEEAKELARFFARELAPRNGMDVEIPDIKVETDPENGWIRITVEITFRWPHGRKQKHPFTIQIPVSAG [r5_381_TrROS]”, for which the figures for the “folding stability dG unfold” value in data set [1], in data set [2] and in data set [3] were 1.25 ± 0.096 kcal/mol, 1.48 ± 0.047 kcal/mol and 1.47 ± 0.063 kcal/mol, respectively.

As for “SAGTEEELVERAKELARELAEELGVEAEAEVTVDPLPDVLVVNLTVRLRLPGGETVELPLTLTFPREFLSAG [r5_609_TrMRF]”, the figures for the “folding stability dG unfold” value in data set [1], in data set [2] and in data set [3] were 3.3 ± 0.035 kcal/mol, 2.71 ± 0.095 kcal/mol and 3.08 ± 0.05 kcal/mol, respectively.

As for “SAGTIIIPMKEIREELGYPPGSPPSQMRDRIRDLIRRLYPRGIRPTDIDIESNGDNWYITVDIKLPPGASAG [r14_158_TrROS]”, the entries for the “folding stability dG unfold” value in data set [1], in data set [2] and in data set [3] were 2.76 ± 0.053 kcal/mol, 2.26 ± 0.058 kcal/mol and 2.63 ± 0.11 kcal/mol, respectively.

Consider “SAGTIKEIAETIAEFMRQNGMNIKVKLTEVDPNDPNYVKVRVEIEMWYYKKNGKPLGPMRHTMTIVIRSAGG [r19_418_TrROS]”, for which the “folding stability dG unfold” value in data set [1] is 3.42 ± 0.13 kcal/mol; in data set [2], 2.84 ± 0.11 kcal/mol; in data set [3] it was 2.92 ± 0.29 kcal/mol.

“SAGTIRIVVPAEELSDEEIEALAEELRKLFPNAKIVRVERRVETLPDGRKRTYVVLEIHIELPPPPEEESAG [r5_835_TrROS_Hall]”: the results for the “folding stability dG unfold” value in data set [1], in data set [2] and in data set [3] were 4.33 ± 0.12 kcal/mol, 4 ± 0.13 kcal/mol and 4.26 ± 0.14 kcal/mol, respectively.

For “SAGTLEEALEDPSNETVEIEIEIPTGEYPLSDPEKVEELAEEKKKEIEKKLKEKGKNVKIIFKVSLKPLSAG [r5_408_JUSTAS]”, the “folding stability dG unfold” value was found to be 0.213 ± 0.15 kcal/mol in data set [1], 0.366 ± 0.07 kcal/mol in data set [2] and 0.447 ± 0.16 kcal/mol in data set [3].

For the sequence “SAGTPEEVLQRAKELANRFQDRARDNGMDVKVDITQVEPNRIRINIEMRPPNGRRHRMPIEIELPKDDISAG [r5_994_TrROS]”, the “folding stability dG unfold” value in data set [1] came out at 1.65 ± 0.036 kcal/mol; in data set [2] it was 1.27 ± 0.079 kcal/mol; in data set [3] it was 1.43 ± 0.2 kcal/mol.

With “SAGTTSVVSTETTEFPDGTVTTTTTVLYLEPEGDGYVKVSETRVTTTYTIDPATGTVVTSTTTTTPLAGSAG [r5_828_JUSTAS]”, the “folding stability dG unfold” value in data set [1] stood at 2.17 ± 0.063 kcal/mol; in data set [2], 1.79 ± 0.063 kcal/mol; in data set [3], 1.99 ± 0.098 kcal/mol.

Take “SAGTTVTLTDPVTGNVTTITKDPTDPNLWTVTLPDGSSVTAKRSEIAKKLGLSPEKLLSDYPVPSVSLTSAG [r5_156_JUSTAS]”: the “folding stability dG unfold” value is 1.88 ± 0.024 kcal/mol in data set [1], 1.94 ± 0.031 kcal/mol in data set [2] and 1.94 ± 0.038 kcal/mol in data set [3].

Consider “SAGTVKVSEDGDKLTVTMTAPPESPALVEALIQALKDAGLTIVTAEITTEPGEGDLVRTTITLTLKPPASAG [r5_739_JUSTAS]”, for which the entries for the “folding stability dG unfold” value in data set [1], in data set [2] and in data set [3] were 2.545 ± 0.024 kcal/mol, 2.33 ± 0.082 kcal/mol and 2.46 ± 0.06 kcal/mol, respectively.

For the sequence “SAGVEIKTDPSKPVITITINYTSIEEAKEYIEKLVKEIGAKEVKIKEDPNSNKITATIDLKDIKKIEKLSAG [r5_598_JUSTAS]”, the “folding stability dG unfold” value in data set [1] is 1.46 ± 0.19 kcal/mol; in data set [2], -0.144 ± 0.52 kcal/mol; in data set [3], 1.09 ± 0.41 kcal/mol.

Regarding “SAGVIPESLIEKVETEEYPGGITRSTYTYPDGVTVTVEETKVPGTDGITRKITVYPPTNTTTETTVTDPSAG [r5_802_JUSTAS]”, the “folding stability dG unfold” value turned out to be 0.348 ± 0.16 kcal/mol in data set [1], 0.29 ± 0.098 kcal/mol in data set [2] and 0.44 ± 0.12 kcal/mol in data set [3].

Take “SAGVKELAEEIADEFQKPGWQVEVEVDPGDGTITVQMRMPDYQYEIEIKITPENGKPQVDIKWRPPNDSAGG [r19_2_TrROS]”: the “folding stability dG unfold” value in data set [1] turned out to be 1.49 ± 0.11 kcal/mol; in data set [2] it was 1.51 ± 0.16 kcal/mol; in data set [3] it was 1.56 ± 0.31 kcal/mol.

As for “SAGVPLSSVPESEVAEEVEFPKHGLKLLRDTATGKWYLQEGDTATVIPPEEAAKLLAEIKAPKPSPELLSAG [r14_516_JUSTAS]”, the “folding stability dG unfold” value came out at 1.01 ± 0.083 kcal/mol in data set [1], 1.33 ± 0.073 kcal/mol in data set [2] and 1.2 ± 0.082 kcal/mol in data set [3].

With “SAGVTITTNPESGTVTITIPFPDGSSATIELNYGGSLPTKPSITSFKVNPYDNGKPIIPADELVKKILSSAG [r5_842_TrMRF]”, the “folding stability dG unfold” value in data set [1] was determined as 1.57 ± 0.13 kcal/mol; in data set [2], 0.96 ± 0.056 kcal/mol; in data set [3], 1.39 ± 0.35 kcal/mol.
